In patent US20240279309A1 (Molecular Partners, published 2024):

Legend:
Experiment in all cases: cell-based or functional assay
[1] = target: T1, CD40 receptor on cells (HEK293 reporter cells expressing CD40; primary human B cells) (human, UniProt P25942 21-277)
[2] = target: T1, CD40 receptor on cells (HEK293 reporter …); remark: listed apart in the source
[3] = target: T1, CD40 receptor on cells (HEK293 reporter …); remark: listed apart in the source

T1 sequence (P25942 21-277): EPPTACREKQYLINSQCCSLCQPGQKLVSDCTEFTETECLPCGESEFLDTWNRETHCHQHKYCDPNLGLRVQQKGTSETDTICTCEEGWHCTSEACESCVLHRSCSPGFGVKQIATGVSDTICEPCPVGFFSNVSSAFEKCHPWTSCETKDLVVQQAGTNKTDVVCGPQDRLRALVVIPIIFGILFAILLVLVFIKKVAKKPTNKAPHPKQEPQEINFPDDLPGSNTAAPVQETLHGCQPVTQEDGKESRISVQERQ

EC50 [nM], % CD86, human B cells with FAP-CHO, w HSA [1] [nM] | EC50 [nM], % CD86, human B cells with FAP-CHO, w/o HSA [1] [nM] | EC50 [nM], MFI CD86, human B cells with FAP-CHO, w HSA [1] [nM] | EC50 [nM], MFI CD86, human B cells with FAP-CHO, w/o HSA [1] [nM] | Efficacy [MFI at highest dose], MFI CD86, human B cells with FAP-CHO, w HSA [2] [MFI] | Efficacy [MFI at highest dose], MFI CD86, human B cells with FAP-CHO, w/o HSA [2] [MFI] | Efficacy at highest dose, % CD86, human B cells with FAP-CHO, w HSA [2] [%] | Efficacy at highest dose, % CD86, human B cells with FAP-CHO, w/o HSA [2] [%] | Efficacy [MFI at highest dose], MFI CD86, human B cells with WT-CHO (no FAP), w HSA [3] [MFI] | Efficacy [MFI at highest dose], MFI CD86, human B cells with WT-CHO (no FAP), w/o HSA [3] [MFI] | Efficacy at highest dose, % CD86, human B cells with WT-CHO (no FAP), w HSA [3] [%] | Efficacy at highest dose, % CD86, human B cells with WT-CHO (no FAP), w/o HSA [3] [%] | Binder
7.5 | 4.68 | 19.4 | 18.2 | 1720 | 4950 | 71.7 | 84.4 | 274 | 289 | 42.5 | 47.4 | SMA099 (SEQ ID NO: 104) (designed binder) MRGSHHHHHHGSDLGKKLLEAARAGQDDEVRELLKAGADVNAKDYFSHTPLHLAARNGHLKIVEVLLKAGADVNAKDFAGKTPLHLAAADGHLEIVEVLLKAGADVNAQDIFGKTPADIAADAGHEDIAEVLQKAAGSPTPTPTTPTPTPTTPTPTPTGSDLGEKLLVAALYGQDDEVRELLKAGADVNAKDQWGLTPLHKAALQGHLEIVEVLLKAGADVNAKDERGHTPLHWAARFGHLEIVEVLLKAGADVNAQDQKGYTPADLAALWGHEDIAEVLQKAAGSPTPTPTTPTPTPTTPTPTPTGSDLGKKLLQAARAGQLDEVRELLKAGADVNAKDTWGFTPLHIAAESGHLEIVEVLLKAGADVNAKDVQGRTPLHIAAHSGHLEIVEVLLKAGADVNAKDFRGWTPLHLAAWSGHLEIVEILLKAGADVNAQDKSGKTPADLAARAGHQDIAEVLQKAAGSPTPTPTTPTPTPTTPTPTPTGSDLGKKLLQAARAGQLDEVRELLKAGADVNAKDTWGFTPLHIAAESGHLEIVEVLLKAGADVNAKDVQGRTPLHIAAHSGHLEIVEVLLKAGADVNAKDFRGWTPLHLAAWSGHLEIVEILLKAGADVNAQDKSGKTPADLAARAGHQDIAEVLQKAAGSPTPTPTTPTPTPTTPTPTPTGSDLGKKLLEAARAGQDDEVRELLKAGADVNAKDYFSHTPLHLAARNGHLKIVEVLLKAGADVNAKDFAGKTPLHLAAADGHLEIVEVLLKAGADVNAQDIFGKTPADIAADAGHEDIAEVLQKAA
6.15 | 4.21 | 7.7 | 8.46 | 2190 | 2440 | 47 | 48.4 | 310 | 294 | 13.3 | 13.2 | SMA014 (SEQ ID NO: 99) (designed binder) MRGSHHHHHHGSDLGEKLLVAALYGQDDEVRELLKAGADVNAKDQWGLTPLHKAALQGHLEIVEVLLKAGADVNAKDERGHTPLHWAARFGHLEIVEVLLKAGADVNAQDQKGYTPADLAALWGHEDIAEVLQKAAGSPTPTPTTPTPTPTTPTPTPTGSDLGKKLLQAARAGQLDEVRELLKAGADVNAKDTWGFTPLHIAAESGHLEIVEVLLKAGADVNAKDVQGRTPLHIAAHSGHLEIVEVLLKAGADVNAKDFRGWTPLHLAAWSGHLEIVEILLKAGADVNAQDKSGKTPADLAARAGHQDIAEVLQKAA
 | 89.8 |  | 288 | 232 | 773 |  | 28.7 | 306 | 299 | 13.7 | 12.5 | SMA095 (SEQ ID NO: 101) (designed binder) MRGSHHHHHHGSDLGKKLLEAARAGQDDEVRELLKAGADVNAKDYFSHTPLHLAARNGHLKIVEVLLKAGADVNAKDFAGKTPLHLAAADGHLEIVEVLLKAGADVNAQDIFGKTPADIAADAGHEDIAEVLQKAAGSPTPTPTTPTPTPTTPTPTPTGSDLGEKLLVAALYGQDDEVRELLKAGADVNAKDQWGLTPLHKAALQGHLEIVEVLLKAGADVNAKDERGHTPLHWAARFGHLEIVEVLLKAGADVNAQDQKGYTPADLAALWGHEDIAEVLQKAAGSPTPTPTTPTPTPTTPTPTPTGSDLGKKLLQAARAGQLDEVRELLKAGADVNAKDTWGFTPLHIAAESGHLEIVEVLLKAGADVNAKDVQGRTPLHIAAHSGHLEIVEVLLKAGADVNAKDFRGWTPLHLAAWSGHLEIVEILLKAGADVNAQDKSGKTPADLAARAGHQDIAEVLQKAAGSPTPTPTTPTPTPTTPTPTPTGSDLGKKLLEAARAGQDDEVRELLKAGADVNAKDYFSHTPLHLAARNGHLKIVEVLLKAGADVNAKDFAGKTPLHLAAADGHLEIVEVLLKAGADVNAQDIFGKTPADIAADAGHEDIAEVLQKAA
